B1: Gsx2^N253A amino acids 167-305 containing the mutated homeodomain, His-tagged (domain or fragment)
chain: not shown
B2: Ascl1 amino acids 92-231 containing the bHLH domain, His-tagged (domain or fragment)
chain: MRCKRRLNFSGFGYSLPQQQPAAVARRNERERNRVKLVNLGFATLREHVPNGAANKKMSKVETLRSAVEYIRALQQLLDEHDAVSAAFQAGVLSPTISPNYSNDLNSMAGSPVSSYSSDEGSYDPLSPEEQELLDFTNWF

Assays:
[1] = biological target: B2; assay: native gel or EMSA
native gel or EMSA = biological target: the molecule itself; assay: native gel or EMSA

| binding result [1] | Binder | binding result (native gel or EMSA) |
| --- | --- | --- |
| binds | B1 |  |
|  | B2 | binds |

Source: publication doi:10.1101/794511 (bioRxiv, 2019)
